Laboratory results as given in patent publication US20230051715A1 (MABWELL THERAPEUTICS, published 2023).

Columns and labels:
[1] = biological target: T1, human C1s deletion mutant 1 (M151) (human) (UniProt P09871); experiment: ELISA, plate coated with 200 ng/well HuC1s(M151), OD450nm
T1 sequence: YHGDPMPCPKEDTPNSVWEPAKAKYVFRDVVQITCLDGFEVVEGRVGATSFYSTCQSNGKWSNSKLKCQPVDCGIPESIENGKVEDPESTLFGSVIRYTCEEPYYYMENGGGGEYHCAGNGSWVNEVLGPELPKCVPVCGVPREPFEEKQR

[2] = biological target: T2, full-length human C1s (produced in house) (human, UniProt P09871 16-688); experiment: ELISA, plate coated with 200 ng/well full-length HuC1s, OD450nm
T2 construct: Called full-length; Partly auto-cleaved at R422-I423 on blots; also called HuC1s; Hu C1s
T2 sequence: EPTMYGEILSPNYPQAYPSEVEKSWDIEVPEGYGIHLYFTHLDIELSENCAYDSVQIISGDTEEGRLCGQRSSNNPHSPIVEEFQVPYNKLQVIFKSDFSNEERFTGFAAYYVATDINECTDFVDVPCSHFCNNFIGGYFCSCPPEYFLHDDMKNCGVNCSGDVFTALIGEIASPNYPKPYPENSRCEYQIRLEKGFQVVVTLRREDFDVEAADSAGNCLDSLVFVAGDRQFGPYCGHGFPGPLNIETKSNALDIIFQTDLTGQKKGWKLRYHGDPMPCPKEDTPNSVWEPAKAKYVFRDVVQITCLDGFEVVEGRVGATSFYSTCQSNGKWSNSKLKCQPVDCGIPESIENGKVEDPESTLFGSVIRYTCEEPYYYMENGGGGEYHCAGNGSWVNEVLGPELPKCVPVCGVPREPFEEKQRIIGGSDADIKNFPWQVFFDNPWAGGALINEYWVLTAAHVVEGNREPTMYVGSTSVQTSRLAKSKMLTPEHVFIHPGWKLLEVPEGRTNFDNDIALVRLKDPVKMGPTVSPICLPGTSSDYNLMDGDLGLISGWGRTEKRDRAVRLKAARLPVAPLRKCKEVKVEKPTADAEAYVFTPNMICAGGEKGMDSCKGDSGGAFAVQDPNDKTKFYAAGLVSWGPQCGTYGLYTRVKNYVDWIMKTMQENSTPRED
Procedure: (§1) ELISA was carried out by first coating 96-well plates with 200 ng/well of full-length or truncated C1s proteins overnight. The next morning, plates were blocked with SuperBlock T20 blocking buffer (Thermo Scientific 37536) for 1 h with gentle shaking. Then, various concentrations of anti-C1s antibodies diluted in SuperBlock T20 blocking buffer were added to the plates and incubated for 1 h with gentle shaking. Mouse IgG (Sigma-Aldrich 15381) and human IgG1 (BioXCell BP0297) were used as negative controls. The plates were washed before incubating with HRP conjugated secondary antibodies diluted in SuperBlock T20 blocking buffer (goat anti-mouse IgG (H+L) cross-adsorbed secondary antibody HRP (Invitrogen G-21040) or goat anti-human IgG antibody, HRP conjugate (Millipore AP309P)) for 1 h with gentle shaking. At last, the plates were washed and color developed with ELISA liquid HRP substrate (Sigma-Aldrich), followed by stopping the reaction with addition of 1M H₂SO₄ in the same volume as the ELISA liquid substrate. Bound antibody was measured by absorbance at OD₄₅₀ₙₘ.

[3] = biological target: T3, human C1s deletion mutant 2 (NHC) (human, UniProt P09871 16-437); experiment: ELISA, plate coated with 200 ng/well HuC1s(NHC), OD450nm
T3 construct: C-terminal 6xHis tag; also called HuC1s(NHC); huC1sNHC
T3 sequence: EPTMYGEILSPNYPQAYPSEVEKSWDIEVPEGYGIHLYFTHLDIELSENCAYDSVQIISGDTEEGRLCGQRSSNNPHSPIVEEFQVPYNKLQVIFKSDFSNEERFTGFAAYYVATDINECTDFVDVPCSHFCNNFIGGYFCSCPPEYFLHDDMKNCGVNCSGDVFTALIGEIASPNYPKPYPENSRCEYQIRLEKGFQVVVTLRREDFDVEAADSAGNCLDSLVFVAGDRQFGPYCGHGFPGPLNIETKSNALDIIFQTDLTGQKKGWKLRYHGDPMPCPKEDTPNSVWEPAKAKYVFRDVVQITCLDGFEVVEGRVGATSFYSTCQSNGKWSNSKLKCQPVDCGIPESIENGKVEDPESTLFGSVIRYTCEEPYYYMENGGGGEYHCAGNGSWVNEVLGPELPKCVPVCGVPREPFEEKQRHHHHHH
Procedure: as §1

[4] = biological target: T4, C1s in normal human serum (NHS, CompTech NHS) (human, UniProt P09871 16-688); experiment: cell-based or functional assay
T4 sequence (looked up): T2 sequence

[5] = biological target: T5, C1s in normal cynomolgus monkey serum (CMS, CompTech NCYS) (cynomolgus monkey, UniProt A0A2K5VQX9 16-685); experiment: cell-based or functional assay
T5 sequence: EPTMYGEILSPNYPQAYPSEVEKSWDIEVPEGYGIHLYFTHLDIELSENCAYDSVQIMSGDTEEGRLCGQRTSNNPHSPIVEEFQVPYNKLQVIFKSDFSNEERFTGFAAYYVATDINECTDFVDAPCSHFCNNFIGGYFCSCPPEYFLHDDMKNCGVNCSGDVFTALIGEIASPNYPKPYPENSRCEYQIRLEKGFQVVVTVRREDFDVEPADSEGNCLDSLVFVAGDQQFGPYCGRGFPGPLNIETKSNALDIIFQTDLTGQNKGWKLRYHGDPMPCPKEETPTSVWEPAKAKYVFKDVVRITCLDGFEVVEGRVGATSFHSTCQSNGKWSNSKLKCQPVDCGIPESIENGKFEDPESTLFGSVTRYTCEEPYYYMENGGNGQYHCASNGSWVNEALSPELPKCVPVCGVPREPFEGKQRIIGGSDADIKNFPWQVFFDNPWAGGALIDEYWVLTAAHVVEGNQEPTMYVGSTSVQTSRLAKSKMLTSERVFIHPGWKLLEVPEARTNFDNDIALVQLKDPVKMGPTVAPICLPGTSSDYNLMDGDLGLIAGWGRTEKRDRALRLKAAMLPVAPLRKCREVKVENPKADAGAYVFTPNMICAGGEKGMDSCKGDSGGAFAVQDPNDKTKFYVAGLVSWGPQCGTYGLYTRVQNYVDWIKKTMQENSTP

[6] = biological target: T6, full-length mouse C1s (produced in house) (mouse, UniProt Q8CG14 16-688); experiment: ELISA, plate coated with 200 ng/well full-length MoC1s, OD450nm
T6 construct: Called full-length; also called MoC1s; moC1s
T6 sequence: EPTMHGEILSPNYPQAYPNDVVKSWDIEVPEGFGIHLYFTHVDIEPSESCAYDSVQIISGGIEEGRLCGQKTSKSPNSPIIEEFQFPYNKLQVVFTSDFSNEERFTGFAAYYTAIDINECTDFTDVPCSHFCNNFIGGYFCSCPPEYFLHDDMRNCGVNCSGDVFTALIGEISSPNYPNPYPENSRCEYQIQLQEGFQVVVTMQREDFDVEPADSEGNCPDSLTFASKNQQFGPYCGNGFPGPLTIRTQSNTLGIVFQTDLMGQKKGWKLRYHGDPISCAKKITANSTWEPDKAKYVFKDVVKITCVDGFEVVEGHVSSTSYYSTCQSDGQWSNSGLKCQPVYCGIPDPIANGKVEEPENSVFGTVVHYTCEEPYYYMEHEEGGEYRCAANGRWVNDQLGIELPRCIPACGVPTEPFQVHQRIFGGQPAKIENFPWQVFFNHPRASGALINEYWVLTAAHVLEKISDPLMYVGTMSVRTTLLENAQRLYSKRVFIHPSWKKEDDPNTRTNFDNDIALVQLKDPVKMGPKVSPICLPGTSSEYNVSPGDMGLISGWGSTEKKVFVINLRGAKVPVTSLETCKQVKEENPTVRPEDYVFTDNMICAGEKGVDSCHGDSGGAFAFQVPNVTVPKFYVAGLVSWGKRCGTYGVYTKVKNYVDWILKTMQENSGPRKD
Procedure: as §1

B1: Anti-C1s antibody hz2-8(H1L2) (antibody, V domains shown)
VH: QVQLVQSGAEVKKPGASVKVSCKASGFNIKEYYMHWVRQAPEQGLEWMGWIDPENGDTIYAQKFQGRVTITADTSTNTAYMELSSLRSEDTAVYYCARSRLFFAYWGQGTLVTVSS
VL: DIQMTQSPKSLSASVGDRVTITCRASQDVRTALDWYQQKPGQSPKLLIYSASYRYSGVPSRFSGSGSGTDFTLTISSLQPEDFATYYCQQQYTTPYTFGQGTKLEIKR
notes: Humanized, human IgG1 / kappa
- EC50 [1]: 0.003 µg/mL
- EC50 [2]: 0.002 µg/mL
- EC50 [3]: 0.003 µg/mL
- IC50, inhibition of IgM-induced C4 deposition from NHS [4]: 0.2 µg/mL
- IC50, inhibition of human complement-mediated lysis of antibody-sensitized sheep erythrocytes (EA) [4]: 0.2 µg/mL
- IC50, inhibition of IgM-induced C4 deposition from CMS [5]: 0.2 µg/mL
- IC50, inhibition of cynomolgus monkey complement-mediated lysis of EA [5]: 0.1 µg/mL
- binding result [6]: no binding (tested: 1000 ng/ml (Log 3))
